The values below come from paper PMC6341091.

Series [1] is described as follows: western blot of total FOXP3, HEK 293. The conditions noted are these: control: no OGT/OGA overexpression or no inhibitor.
A short description of series [2]: CHX chase, HEK 293, western blot. To be noted: control: no OGT/OGA overexpression or no inhibitor.
Series [3] can be described thus: CHX chase, HEK 293, OGT overexpression, western blot. The conditions noted are these: glycan lost; control: wild-type FOXP3.
Series [4] in a line: retroviral transduction of CD4+CD25- T cells, FOXP3 MFI. The conditions noted are these: glycan lost; control: wild-type FOXP3.
Series [5] can be described thus: not described in main text (Supplementary Fig. 2F). The conditions noted are these: glycan lost; control: wild-type FOXP3.

B1: FOXP3: TMG (protein)
parent chain: MPNPRPAKPMAPSLALGPSPGVLPSWKTAPKGSELLGTRGSGGPFQGRDLRSGAHTSSSLNPLPPSQLQLPTVPLVMVAPSGARLGPSPHLQALLQDRPHFMHQLSTVDAHAQTPVLQVRPLDNPAMISLPPPSAATGVFSLKARPGLPPGINVASLEWVSREPALLCTFPRSGTPRKDSNLLAAPQGSYPLLANGVCKWPGCEKVFEEPEEFLKHCQADHLLDEKGKAQCLLQREVVQSLEQQLELEKEKLGAMQAHLAGKMALAKAPSVASMDKSSCCIVATSTQGSVLPAWSAPREAPDGGLFAVRRHLWGSHGNSSFPEFFHNMDYFKYHNMRPPFTYATLIRWAILEAPERQRTLNEIYHWFTRMFAYFRNHPATWKNAIRHNLSLHKCFVRVESEKGAVWTVDEFEFRKKRSQRPNKCSNPCP
B1: the expression_or_secretion entry in series [1] (glycan gained) is listed as “increases”. The degradation_or_half_life entry in series [2] (glycan gained) is listed as “increases”.

B2: FOXP3: OGT overexpression (protein)
parent chain: B1 parent chain
In the case of B2, the expression_or_secretion result in series [1] (glycan gained) is on record as “increases”. In addition, in series [2] (glycan gained), the degradation_or_half_life entry is recorded as “increases”.

B3: FOXP3: OGA overexpression (protein)
parent chain: B1 parent chain
Take B3: in series [1] (glycan lost), the expression_or_secretion entry is listed as “decreases”. Further, the degradation_or_half_life entry in series [2] (glycan lost) is listed as “decreases”.

B4: FOXP3: FOXP3-5A (protein)
parent chain: B1 parent chain
Take B4: in series [3], the degradation_or_half_life result was “decreases”. Moreover, the expression_or_secretion entry in series [4] was “decreases”. Moreover, in series [5], the “other: OGT-induced transcriptional suppression activity” value is “abolishes”.

B5: FOXP3: ST045849 (protein)
parent chain: B1 parent chain
In the case of B5, the expression_or_secretion result in series [1] (glycan lost) is “decreases”. In series [2] (glycan lost), the degradation_or_half_life result was “decreases”.
